The record followed here is article PMC3538678.

For assay [1], the target named is recombinant human laminin-511 (α5β1γ1) (human) (UniProt O15230).
Assay [2] addresses recombinant human laminin-521 (α5β2γ1) (human) (UniProt O15230).
Assay [3] addresses recombinant human laminin-511 (α5β1γ1) (human) (UniProt O15230). This is another data set of the same source.
Assay [4] deals with recombinant human laminin-521 (α5β2γ1) (human) (UniProt O15230). The source holds these as a separate data set.

Consider “recombinant human α3β1 integrin (from UniProt P26006 33-1051; P05556 21-728) (receptor)”, for which, in assay [1], the adhesion of BE melanoma cells to wells coated with rhLM511 (20 µg/ml), OD worked out at 1.65 OD; the adhesion of KG1C glioma cells to wells coated with rhLM511 (20 µg/ml), OD came out at 1.48 OD; the adhesion of MDA-MB-231 breast carcinoma cells to wells coated with rhLM511 (20 µg/ml), OD worked out at 1.82 OD. In assay [2], the adhesion of BE melanoma cells to wells coated with rhLM521 (20 µg/ml), OD amounted to 1.56 OD; the adhesion of KG1C glioma cells to wells coated with rhLM521 (20 µg/ml), OD worked out at 1.39 OD; the adhesion of MDA-MB-231 breast carcinoma cells to wells coated with rhLM521 (20 µg/ml), OD was 1.85 OD. Also, in assay [3], the migration of carcinoma cells through membranes coated with rhLM511, cells/field turned out to be 190 cells/field; the migration of glioma cells through membranes coated with rhLM511, cells/field was 161 cells/field; the migration of melanoma cells through membranes coated with rhLM511, cells/field came to 88 cells/field. Further, in assay [4], the migration of carcinoma cells through membranes coated with rhLM521, cells/field was found to be 198 cells/field; the migration of glioma cells through membranes coated with rhLM521, cells/field turned out to be 174 cells/field; the migration of melanoma cells through membranes coated with rhLM521, cells/field is 203 cells/field.
